From patent US20190338034A1 (Genentech, published 2019)

Key:
[1] = target: T1, atezolizumab (anti-PD-L1 antibody); assay: immunofixation electrophoresis (Sebia IFE) gel shift, atezolizumab 1500 µg/mL in PBS pre-incubated 2 h with anti-ID antibody
T1 construct: Full IgG/Ig kappa antibody as used in the IFE gel shift assays; also called anti-PDL1 antibody atezolizumab

[2] = target: T2, anti-PDL1 Fab (Fab of anti-PD-L1 antibody atezolizumab); assay: SPR (BIAcore), anti-idiotypic antibody captured by anti-mouse-Fc on CM5 chip, 500 nM anti-PDL1 Fab injected, 25 C, 1:1 Langmuir model
T2 construct: Fab format (Genentech); also called anti-PDL1 antibody Fab
Description: (§1) Binding affinities of anti-PDL1 anti-ID antibodies were measured by Surface Plasmon Resonance (SPR) using a BIAcore™-[…] instrument. Anti-idiotypic antibodies were captured by an anti-mouse-Fc antibody coated on CM5 biosensor chips to achieve approximately 200 response units (RU). For kinetics measurements, 500 nM of anti-PDL1 Fab or framework control Fab (YW167B.43) (Genentech, South San Francisco, Calif.) were injected in HBS-P+ buffer (0.1M HEPES, 1.5M NaCl, 0.5% Surfactant P20—GE Life Science) at 25° C. with a flow rate of […]. Association rates (kₐ) and dissociation rates (kd) were calculated using a simple one-to-one Langmuir binding model (BIAcore Evaluation Software version 3.2). The equilibrium dissociation constant (KD) was calculated as the ratio koff/kₒₙ. See also FIG. 3-5.

[3] = target: T2, anti-PDL1 Fab (Fab of anti-PD-L1 …); assay: SPR (BIAcore), anti-ID captured by anti-mouse-Fc on a CM5 chip, anti-PDL1 antibody Fab injected at 500 nM, 25 °C, 1:1 binding model
Description: as §1

[4] = target: T3, YW167B.43 Negative Control; assay: SPR (BIAcore), anti-ID captured, YW167B.43 negative control Fab injected at 500 nM, 25 °C. The software prints this 1:1 fit under a flat sensorgram with no response.
T3 construct: also called framework control Fab
Description: as §1

[5] = target: T3, YW167B.43 Negative Control; assay: SPR (BIAcore), anti-ID captured, YW167B.43 negative control Fab injected at 500 nM, 25 °C. The software prints this 1:1 fit under a flat sensorgram with no positive response.
Description: as §1

Row | Binder | binding result [1] | Kd [2] [nM] | koff [2] [s⁻¹] | kon [2] [M⁻¹ s⁻¹] | Kd [3] [nM] | koff [3] [s⁻¹] | kon [3] [M⁻¹ s⁻¹] | Kd [4] [nM] | koff [4] [s⁻¹] | kon [4] [M⁻¹ s⁻¹] | Kd [5] [nM] | koff [5] [s⁻¹] | kon [5] [M⁻¹ s⁻¹]
1 | anti-idiotypic anti-PD-L1 antibody 105D11 (antibody, mouse IgG2a, kappa, V domains shown, Mouse monoclonal from a hybridoma) VH: EVQLVETGGGLVKPGGSLKLSCAASGFAFSSYDMSWVRQTPEKRLEWVAYISSGGGSTYYPDTVKGRFTISRDNAKNTLYLQMSSLKSEDTAMYYCARLVYYDYDDAMDYWGQGTSVTVSS VL: DIVLTQSPAIMSASPGEKVTITCSASSSVSYMHWFQQKPGTSPKLWIYSTSNLASGVPARFSGSGSGTSYSLTISRMEAEDAATYYCQQRSSYPPTFGGGTRLEIKR | binds | 16.5 | 0.0045 | 279000 | 17.5 | 0.00648 | 370000 | 31.7 | 1.66 | 5.23e+07 | – | – | –
2 | anti-idiotypic anti-PD-L1 antibody 48C1 (antibody, mouse IgG2a, kappa, V domains shown, Mouse monoclonal from a hybridoma; also called atezolizumab anti-idiotypic mouse mAB clone 48C1; atezolizumab anti-ID antibody 48C1) VH: EVQLVESGGGLVKPGGSLKLSCAASGFAFSSYDMSWVRQTPEKRLEWVAYISSGGGSTYYPDTVKGRFTISRDNAKNTLYLQMSSLKSEDTAMYYCARTIYYGYDDVMDYWGQGTSVTVSS VL: QIVLTQSPAIMSASPGEKVTITCSASSSVSYMHWFQQKPGTSPKLWIYSTSNLASGVPARFSGSGSGTSYSLTISRMEAEDAATYYCQQRSGYPPTFGGGTKLEIKR | binds | 2.31 | 0.000977 | 421000 | 2.64 | 0.000949 | 360000 | – | – | – | 127 | 0.000421 | 3310
3 | anti-idiotypic anti-PD-L1 antibody 43B5 (antibody, mouse IgG2a, kappa, V domains shown, Mouse monoclonal from a hybridoma) VH: EVQLQQSGPELVKPGASVKISCKASGYSFTDYIMLWVKQSHGKSLEWIGNINPYYGSTSYNLKFKGKATLTVDKSSSTAYMQLNSLTSEDSAVYYCARWGGNYEGWFAYWGQGTLVTVSA VL: DIKMTQSPSSMSVSLGDTVSITCHASQGISSNIGWLQQKPGKSFKGLIYHGTNLEDGVPSRFSGSGSGADYSLTISSLESEDFADYYCVQYAQFPLTFGAGTKLELKR | binds | 90.7 | 0.00862 | 95000 | 89 | 0.00878 | 98600 | 0.222 | 0.000128 | 574000 | – | – | –
